Test results from the RNAGym collection of RNA variant scans (doi:10.1073/pnas.2313332121).

B1: TPR t1 (parent)
chain: GACCAAUCUGCCCUCAGAGCUCGAGAACAUCUUCGGAUGCAGAGGAGGCAGGCUUCGGUGGCGCGAUAGCGCCAACGUCCUCAACCUCCAAUGCAUCCCACCACAUGAUGAUGCCUGAAGAGCCUUGGUUUUUUG

Variants of: B1
Experiment: polymerase ribozyme fitness, log enrichment relative to wild type (log ratio); higher = more active; in vitro selection for triplet polymerase activity
Summary of the method: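 Fitness compares each genotype's enrichment to that of the wild type on a logarithmic scale, averaging replicates with inverse-variance weights. The logarithm is base 2. Enrichment came from Illumina sequencing of input and output libraries after one triplicate round of in vitro selection, which included frozen incubation at −7 °C, of PCR-built, transcribed mutant libraries of each subunit of a heterodimeric triplet polymerase ribozyme. Only genotypes with ≥10 input reads and ≥1 read per output were kept.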
For GACCAAUCUGCCCUCAGAGCUCGAGAACAUCUUCGGAAGCAGAGGAGGCAGGCGUCGGUGGCGCGAUAGCGCCAACGUCCUCAACCUCCAAUGCAUCCCACCACAUGAUGAUGCCUGAAGAGCCUUGGUUUUUUG, the “polymerase ribozyme fitness (log ratio)” value was -0.848. For GACCAAUCUGCCCUCAGAGCUCGAGAACAUCUUCGGAGGCAGGGGAGGCAGGCUUCGGUGGCGCGAUAGCGCCAACGUCCUCAACCUCCAAUGCAUCCCACCACAUGAUGAUGCCUGAAGAGCCUUGGUUUUUUG, the “polymerase ribozyme fitness (log ratio)” value was -2.91. In the case of GACCAAUCUGCCCUCAGAGCUCGAGAACAUCUUCGGACGCAGAGGAGGCAGGCUUUGGUGGCGCGAUAGCGCCAACGUCCUCAGCCUCCAAUGCAUCCCACCACAUGAUGAUGCCUGAAGAGCCUUGGUUUUUUG, the “polymerase ribozyme fitness (log ratio)” value is reported as -1.53. With GACCAAUCUGCCCUCAGAGCUCGAGAACAUCUUCGGAGGCAGAGGAGGCAGGCUUCGGUGGCGCGAUAGCGCCAACGUCCUCAACCUCCAAUGCAUCCCACCACAUGAUGAUGCCUGAAGAGCCUUGCUUUUUUG the “polymerase ribozyme fitness (log ratio)” value was -2.66. With GACCAAUCUGCCCUCAGAGCUCGAGAACAUCUUCGGAGGCAGAGGAGGCAGGCUUCGGUGGCGCGAUAGCGCCAACGUCCUCAACCUCCAAUGCAUCCCACCACAUGAUGAUGCCCGAAGAGCCUUGGUUUUUUG the “polymerase ribozyme fitness (log ratio)” value was -2.06. With GACCAAUCUGCCCUCAGAGCUCGAGAACAUCUUCGGAGGCAGAGGAGGCAGGCUUCGGUGUCGCGAUAGCGCCAACGUCCUCAACCUCCAAUGCAUCCCACCACAUGAUGAUGCCCGAAGAGCCUUGGUUUUUUG the “polymerase ribozyme fitness (log ratio)” value was -1.78. For GACCAAUCUGCCCUCAGAGCUCGAGAACAUCUUCGGAGGCAGUGGAGGCAGGCUUCGGUGGCGCGAUAGCGCCAACGUCCUCAACCCCCAAUGCAUCCCACCACAUGAUGAUGCCUGAAGAGCCUUGGUUUUUUG, the “polymerase ribozyme fitness (log ratio)” value was -2.42. In the case of GACCAAUCUGCCCUCAGAGCUCGAGAACAUCUUCGGACGCAGAGAAGGCAGGCUUCGGUGGCGCGAUAGCGCCAACGUCCUCAACCUCCAAUGCAUCCCACCACAUGAUGAUCCCUGAAGAGCCCUGGUUUUUUG, the “polymerase ribozyme fitness (log ratio)” value is reported as -3.38. For GACCAAUCUGCCCUCAGAGCUCGAGAACAUCUUCGGACGCAGAGGAGGCAGGCUUCUGUGGCGCGAUAGCGCCAACGUCCUCAACCUCCAAUGCAUCCCACCACAUGAUGAUGCCUCAAGAGCCUUGGUUUUUUG, the “polymerase ribozyme fitness (log ratio)” value was -5.11. For GACCAAUCUGCCCUCAGAGCUCGAGAACAUCUUCGGAGGCAGAGGAGGCAGGCUUCGGUGGCGCGAUAGCGCCAACGUCCUUAACCUCCAAUGCAUCCCACCACAUGAUGAUGCCUGAAGAGCCUUGGUUUUUUG, the “polymerase ribozyme fitness (log ratio)” value was -0.857. For GACCAAUCUGCCCUCAGAGCUCGAGAACAUCUUCGGAAGCAGAGGAGGCAGGCUUCGGUGGCGCGAUAGCGCCAACGUCCUCAACCUCCAAUGCAUCCCACCACAUGAUGAUCCCUGAAGAGCCUUGGUUUUUUG, the “polymerase ribozyme fitness (log ratio)” value was -2.81. With GACCAAUCUGCCCUCAGAGCUCGAGAACAUCUUCGGAAGCAGAGGAGGCAGGCUUCGGUGGCGCGAUAGCGCCAACGUCCUCAACCUCCAAUGCAUCCCACCACAUGAUGAUGCCUGAAGAGCCUUGGUUUUAUG the “polymerase ribozyme fitness (log ratio)” value was -0.815. With GACCAAUCUGCCCUCAGAGCUCGAGAACAUCUUCGGACGCAGAGGAGGCAGGCUUCGGUGGCGCGAUAGCGCCAACGUCCUCAACCUCCAAUGCAUCCCACCACAUGACGAUGCCUGAAGAGCCUUGGUUUUUUG the “polymerase ribozyme fitness (log ratio)” value was -4.71. With GACCAAUCUGCCCUCAGAGCUCGAGAACAUCUUCGGACGCAGAGGAGGCAGGCUUCGGUGGCGCGAUAGCGCCAACGUCCUCAACCUCCCAUGCAUCCCACCACAUGAUGAUGCCUGAAGAGCCUUGGUUUUUUG the “polymerase ribozyme fitness (log ratio)” value was -1.49. With GACCAAUCUGCCCUCAGAGCUCGAGAACAUCUUCGGACGCAGAGGAGGCAGGUUUCGGUGGCGCGAUAGCGCCAACGUCCUCAACCUCCAAUGCAUCCCACCACAUGAUGAUGCCAGAAGGGCCUUGGUUUUUUG the “polymerase ribozyme fitness (log ratio)” value was 0.589. For GACCAAUCUGCCCUCAGAGCUCGAGAACAUCUUCGGAAGCAGAGGAGUCAGGCUUCGGUGGCGCGAUAGCGCCAACGUCCUCAACCUCCAAUGCAUCCCACCACAUGAUAAUGCCUGAAGAGCCUUGGUUUUUUG, the “polymerase ribozyme fitness (log ratio)” value was -3.21. For GACCAAUCUGCCCUCAGAGCUCGAGAACAUCUUCGGAAGCAGAGGAGGCAGGCUUCGCUGGCGCGAUAGCGCCAACGUCCUCAACCUCCAAUGCAUCCCACCACAUGAUGAUGCAUGAAGAGCCUUGGUUUUUUG, the “polymerase ribozyme fitness (log ratio)” value was -1.1. In the case of GACCAAUCUGCCCUCAGAGCUCGAGAACAUCUUCGGAAGCAGAGGAGGCAGGCUUCGGUGGCGCGAUAACGCCAACGUCCUCAACCUCCAAUGCAUCCCACCACAUGAUGAUGCCUGAAGAGCCUUGGUUUUUUG, the “polymerase ribozyme fitness (log ratio)” value is reported as -4.51. In the case of GACCAAUCUGCCCUCAGAGCUCGAGAACAUCUUCGGAUACAGAGGUGGCAGGCUUCGGUGGCGCGAUAGCGCCAACGUCCUCAACCUCCAAUGCAUCCCACCACAAGAUGAUGCCUGAAGAGCCUUGGUUUUUUG, the “polymerase ribozyme fitness (log ratio)” value is reported as -2.02. For GACCAAUCUGCCCUCAGAGCUCGAGAACAUCUUCGGAGGCAGAGGAGGCAGGCGUCGGUGGCGUGAUAGCGCCAACGUCCUCAACCUCCAAUGCAUCCCACCACAUGAUGAUGCCUGAAGAGCCUUGGUUUUUUG, the “polymerase ribozyme fitness (log ratio)” value was -4.46. For GACCAAUCUGCCCUCAGAGCUCGAGAACAUCUUCGGACGCAGAGGAGGCAGGCUUCAGUGGCGCGAUAUCGCCAACGUCCUCAACCUCCAAUGCAACCCACCACAUGAUGAUGCCUGAAGAGCCUUGGUUUUUUG, the “polymerase ribozyme fitness (log ratio)” value was -3.58.
